To fix the notation:
B1: ZNF449 (parent)
chain: TLHQRTHTEERPFKCNYCGKSFRQ
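Further: lentivirally expressed fusions sorted by FACS into six bins by GFP to DsRed ratio, PSI derived from sequencing read proportions per bin multiplied by bin number.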

The variants in this data set derive from B1. As to the kind of experiment: protein stability index of a GFP-peptide fusion (GPS, HEK-293T) (PSI 1-6); higher = more stable. Conditions: c terminus: a fixed tail appended.
TLHQRQHTEERPFKCNYCGKSFRQ [T6Q]: the protein stability index is 2.54.

TLHQRSHTEERPFKCNYCGKSFRQ [T6S]: the protein stability index came out at 3.12. In the case of TLHQRGHTEERPFKCNYCGKSFRQ [T6G], the protein stability index was 1.85.

Regarding TLHQRNHTEERPFKCNYCGKSFRQ [T6N], the protein stability index worked out at 2.08.

With TLHQRFHTEERPFKCNYCGKSFRQ [T6F], the protein stability index was found to be 1.76.

For TLHQREHTEERPFKCNYCGKSFRQ [T6E], the protein stability index is 2.67. In the case of TLHQRIHTEERPFKCNYCGKSFRQ [T6I], the protein stability index turned out to be 2.33. For TLHQRCHTEERPFKCNYCGKSFRQ [T6C] the value was 3.06; for TLHQRPHTEERPFKCNYCGKSFRQ [T6P], 1.76. As for TLHQRRHTEERPFKCNYCGKSFRQ [T6R], the protein stability index worked out at 2.28.

As for TLHQRWHTEERPFKCNYCGKSFRQ [T6W], the protein stability index is 2. As to TLHQRAHTEERPFKCNYCGKSFRQ [T6A], the protein stability index worked out at 2.38. For TLHQRMHTEERPFKCNYCGKSFRQ [T6M] the value was 2.03; for TLHQRYHTEERPFKCNYCGKSFRQ [T6Y], 2.25; for TLHQRHHTEERPFKCNYCGKSFRQ [T6H], 1.55. For TLHQRDHTEERPFKCNYCGKSFRQ [T6D] the value was 2.56. For TLHQRTHTEELPFKCNYCGKSFRQ [R11L] the value was 2.39; for TLHQRTHTEEMPFKCNYCGKSFRQ [R11M], 2.25; for TLHQRTHTEEIPFKCNYCGKSFRQ [R11I], 2.08. TLHQRTHTEESPFKCNYCGKSFRQ [R11S]: the protein stability index turned out to be 2.25. Regarding TLHQRTHTEEQPFKCNYCGKSFRQ [R11Q], the protein stability index is 2.95. Take TLHQRTHTEEVPFKCNYCGKSFRQ [R11V]: the protein stability index was determined as 2.54. With TLHQRTHTEETPFKCNYCGKSFRQ [R11T] the figure was 2.33; with TLHQRTHTEECPFKCNYCGKSFRQ [R11C], 2.24. With TLHQRTHTEEWPFKCNYCGKSFRQ [R11W] the figure was 2.09; with TLHQRTHTEEHPFKCNYCGKSFRQ [R11H], 2.53; with TLHQRTHTEEDPFKCNYCGKSFRQ [R11D], 3.19. With TLHQRTHTEEKPFKCNYCGKSFRQ [R11K] the figure was 2.5; with TLHQRTHTEEYPFKCNYCGKSFRQ [R11Y], 2.11; with TLHQRTHTEEPPFKCNYCGKSFRQ [R11P], 2.12. Turning to TLHQRTHTEENPFKCNYCGKSFRQ [R11N], the protein stability index was 2.42. As for TLHQRTHTEEEPFKCNYCGKSFRQ [R11E], the protein stability index was 3.24. For the variant TLHQRTHTEEAPFKCNYCGKSFRQ [R11A], the protein stability index is 2.39. With TLHQRTHTEEFPFKCNYCGKSFRQ [R11F] the figure was 1.92. With TLHQRTKTEERPFKCNYCGKSFRQ [H7K] the figure was 2.27. For TLHQRTWTEERPFKCNYCGKSFRQ [H7W] the value was 2.88; for TLHQRTCTEERPFKCNYCGKSFRQ [H7C], 2.66.

In the case of TLHQRTSTEERPFKCNYCGKSFRQ [H7S], the protein stability index was determined as 2.4.

Consider TLHQRTLTEERPFKCNYCGKSFRQ [H7L], for which the protein stability index turned out to be 2. For TLHQRTQTEERPFKCNYCGKSFRQ [H7Q] the value was 2.88; for TLHQRTYTEERPFKCNYCGKSFRQ [H7Y], 1.94. With TLHQRTMTEERPFKCNYCGKSFRQ [H7M], the protein stability index was determined as 2.29. For TLHQRTNTEERPFKCNYCGKSFRQ [H7N] the value was 2.12; for TLHQRTTTEERPFKCNYCGKSFRQ [H7T], 2.8. TLHQRTVTEERPFKCNYCGKSFRQ [H7V]: the protein stability index was found to be 4.2.

TLHQRTRTEERPFKCNYCGKSFRQ [H7R]: the protein stability index is 2.48. For TLHQRTDTEERPFKCNYCGKSFRQ [H7D] the value was 2.65; for TLHQRTPTEERPFKCNYCGKSFRQ [H7P], 2.43; for TLHQRTATEERPFKCNYCGKSFRQ [H7A], 1.65. Turning to TLHQRTETEERPFKCNYCGKSFRQ [H7E], the protein stability index was determined as 2.5. With TLHQRTITEERPFKCNYCGKSFRQ [H7I] the figure was 2.37. With TLHQRTGTEERPFKCNYCGKSFRQ [H7G] the figure was 1.97. For TLHQRTFTEERPFKCNYCGKSFRQ [H7F] the value was 2.13; for TLHQRTHTENRPFKCNYCGKSFRQ [E10N], 2.48. For TLHQRTHTEKRPFKCNYCGKSFRQ [E10K], the protein stability index stood at 2.03. As to TLHQRTHTEIRPFKCNYCGKSFRQ [E10I], the protein stability index turned out to be 3.39.

In the case of TLHQRTHTEHRPFKCNYCGKSFRQ [E10H], the protein stability index is 1.78. As to TLHQRTHTEARPFKCNYCGKSFRQ [E10A], the protein stability index worked out at 1.95. On to TLHQRTHTEMRPFKCNYCGKSFRQ [E10M], for which the protein stability index was 2.73. Take TLHQRTHTEGRPFKCNYCGKSFRQ [E10G]: the protein stability index is 1.18.

As for TLHQRTHTESRPFKCNYCGKSFRQ [E10S], the protein stability index worked out at 2.1. Consider TLHQRTHTECRPFKCNYCGKSFRQ [E10C], for which the protein stability index was found to be 1.74. With TLHQRTHTERRPFKCNYCGKSFRQ [E10R] the figure was 1.81. For the variant TLHQRTHTEQRPFKCNYCGKSFRQ [E10Q], the protein stability index was found to be 2.56.

On to TLHQRTHTEPRPFKCNYCGKSFRQ [E10P], for which the protein stability index was 1.91. With TLHQRTHTETRPFKCNYCGKSFRQ [E10T] the figure was 2.25; with TLHQRTHTEFRPFKCNYCGKSFRQ [E10F], 1.48. Take TLHQRTHTEYRPFKCNYCGKSFRQ [E10Y]: the protein stability index was determined as 2.55.

Regarding TLHQRTHTEVRPFKCNYCGKSFRQ [E10V], the protein stability index amounted to 3.31. For TLHQRTHTEWRPFKCNYCGKSFRQ [E10W] the value was 2.46; for TLHQRTHTELRPFKCNYCGKSFRQ [E10L], 1.55; for TLHGRTHTEERPFKCNYCGKSFRQ [Q4G], 2.12. As for TLHNRTHTEERPFKCNYCGKSFRQ [Q4N], the protein stability index is 2.75. In the case of TLHLRTHTEERPFKCNYCGKSFRQ [Q4L], the protein stability index was found to be 1.9. As for TLHSRTHTEERPFKCNYCGKSFRQ [Q4S], the protein stability index came to 2.12. With TLHWRTHTEERPFKCNYCGKSFRQ [Q4W] the figure was 2.24; with TLHFRTHTEERPFKCNYCGKSFRQ [Q4F], 2.42; with TLHIRTHTEERPFKCNYCGKSFRQ [Q4I], 1.71.

TLHRRTHTEERPFKCNYCGKSFRQ [Q4R]: the protein stability index is 3.24.

In the case of TLHVRTHTEERPFKCNYCGKSFRQ [Q4V], the protein stability index is 2.38. For TLHERTHTEERPFKCNYCGKSFRQ [Q4E] the value was 2.85; for TLHPRTHTEERPFKCNYCGKSFRQ [Q4P], 2.92; for TLHKRTHTEERPFKCNYCGKSFRQ [Q4K], 2.94.

On to TLHDRTHTEERPFKCNYCGKSFRQ [Q4D], for which the protein stability index is 2.41.

As to TLHARTHTEERPFKCNYCGKSFRQ [Q4A], the protein stability index worked out at 2.08. For TLHHRTHTEERPFKCNYCGKSFRQ [Q4H] the value was 1.73; for TLHTRTHTEERPFKCNYCGKSFRQ [Q4T], 2.67.

On to TLHMRTHTEERPFKCNYCGKSFRQ [Q4M], for which the protein stability index worked out at 2.08. Regarding TLHYRTHTEERPFKCNYCGKSFRQ [Q4Y], the protein stability index was 2.03. Consider TLHCRTHTEERPFKCNYCGKSFRQ [Q4C], for which the protein stability index worked out at 3.33. For TLHQRTHTKERPFKCNYCGKSFRQ [E9K] the value was 3.15.

With TLHQRTHTYERPFKCNYCGKSFRQ [E9Y], the protein stability index was determined as 2.19. With TLHQRTHTAERPFKCNYCGKSFRQ [E9A] the figure was 2; with TLHQRTHTWERPFKCNYCGKSFRQ [E9W], 1.77.

The record behind these values is the supplement of paper PMC10567573.
